Results on seven molecules are retold here after paper PMC3764826, “Bpur, the Lyme Disease Spirochete's PUR Domain Protein”.

For data set [1], the target named is T1, Bpur (Borrelia burgdorferi B31, UniProt O51076 1-122).
T1 sequence: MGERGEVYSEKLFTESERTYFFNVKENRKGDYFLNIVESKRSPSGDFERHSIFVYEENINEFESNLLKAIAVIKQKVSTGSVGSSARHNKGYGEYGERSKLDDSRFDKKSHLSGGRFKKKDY
Put plainly: EMSA; simultaneous with Bio-2; EMSA: 50 mM Tris pH 7.5, 25 mM KCl, 1 mM MgCl2, 100 nM DTT, 10% glycerol, 0.01% Tween 20, 0.1% PMSF; temperature not stated; RNA/ssDNA probes preheated at 56 C, RiboGuard with RNA. The note with it: protein: recombinant; tags: His tag (pET101, nickel purification); chain copies: 2; label: 5' biotin. A general note: A gel shift assay detects complexes by their altered migration in electrophoresis.

Data set [2] deals with T1, Bpur. Nature of the data set: competition; 100-fold excess vs Bio-1; EMSA: 50 mM Tris pH 7.5, 25 mM KCl, 1 mM MgCl2, 100 nM DTT, 10% glycerol, 0.01% Tween 20, 0.1% PMSF; temperature not stated; RNA/ssDNA probes preheated at 56 C, RiboGuard with RNA. The note with it: protein: recombinant; tags: His tag (pET101, nickel purification); chain copies: 2.
The target of data set [3] is T1, Bpur. Put plainly: EMSA; EMSA: 50 mM Tris pH 7.5, 25 mM KCl, 1 mM MgCl2, 100 nM DTT, 10% glycerol, 0.01% Tween 20, 0.1% PMSF; temperature not stated; RNA/ssDNA probes preheated at 56 C, RiboGuard with RNA. The following applies: protein: recombinant, tags: His tag (pET101, nickel purification), chain copies: 2.
The target in data set [4] is T1, Bpur. Nature of the data set: EMSA; simultaneous with Bio-3; EMSA: 50 mM Tris pH 7.5, 25 mM KCl, 1 mM MgCl2, 100 nM DTT, 10% glycerol, 0.01% Tween 20, 0.1% PMSF; temperature not stated; RNA/ssDNA probes preheated at 56 C, RiboGuard with RNA. The note with it: protein: recombinant; tags: His tag (pET101, nickel purification); chain copies: 2; label: 5' biotin.
The target of data set [5] is T1, Bpur. Put plainly: EMSA; 50-500 nM Bpur; EMSA: 50 mM Tris pH 7.5, 25 mM KCl, 1 mM MgCl2, 100 nM DTT, 10% glycerol, 0.01% Tween 20, 0.1% PMSF; temperature not stated; RNA/ssDNA probes preheated at 56 C, RiboGuard with RNA. The following applies: protein: recombinant; tags: His tag (pET101, nickel purification); chain copies: 2; label: 5' biotin.

B1: Bio-3 (dsDNA)
DNA 1: GGAGAGATTTTGGGGAGTTGTTTAAAATTACATTTGCGTTTTGTTAAAATGTAAC
DNA 2: GTTACATTTTAACAAAACGCAAATGTAATTTTAAACAACTCCCCAAAATCTCTCC
Consider B1, for which the binding result in the data set with Bpur [1] is “binds”.

B2: competitor C (dsDNA)
DNA 1: GTAGTGCATTTGCAATGGAGAGATTTTGGGGAGTTGTTTAAAATTAC
DNA 2: GTAATTTTAAACAACTCCCCAAAATCTCTCCATTGCAAATGCACTAC
With B2, in the data set with Bpur [2], the binding result is given as “binds”.

B3: Bio-sense-RNA (ssRNA)
RNA: AAUGGAGAGAUUUUGGGGAGUUGUUUAAAAUUACAUUUGCGUUUUGUUAAAAUG
Usually Kd stands for the equilibrium constant for the complex coming apart. Take B3: in the data set with Bpur [3] (label: 5' biotin), the Kd came to 13 nM.

B4: Bio-2 (dsDNA)
DNA 1: TAAAATTACATTTGCGTTTTGTTAAAATGTAACAGCTGAATGTAAC
DNA 2: GTTACATTCAGCTGTTACATTTTAACAAAACGCAAATGTAATTTTA
For the molecule B4, the binding result with Bpur [4] is recorded as “no binding”.

B5: Bio-1 (dsDNA)
DNA 1: GAGTAGTGCATTTGCAATGGAGAGATTTTGGGGAGTTGTTTAAAATTACATTTGCGTTTTGTTAAAATGTAACAGCTGAATGTAACAAAATTATATATTTAAATCTTGAAATA
DNA 2: TATTTCAAGATTTAAATATATAATTTTGTTACATTCAGCTGTTACATTTTAACAAAACGCAAATGTAATTTTAAACAACTCCCCAAAATCTCTCCATTGCAAATGCACTACTC
B5: the binding result with Bpur [5] is recorded as “binds”.

B6: Bio-dsDNA (dsDNA)
DNA 1: AATGGAGAGATTTTGGGGAGTTGTTTAAAATTACATTTGCGTTTTGTTAAAATG
DNA 2: CATTTTAACAAAACGCAAATGTAATTTTAAACAACTCCCCAAAATCTCTCCATT
As to B6, the Kd in the data set with Bpur [3] (label: 5' biotin (one strand), blunt) turned out to be 130 nM.

B7: Bio-sense-ssDNA (ssDNA)
DNA: B6 DNA 1
As to B7, the Kd with Bpur [3] (label: 5' biotin) is 390 nM.
